# According to the supplement of paper PMC10567573:
# B1: MLL5 (parent)
# chain: HDDGYMICCDKCSVWQHIDCMGID
# Variants of: B1
# Test: protein stability index of a GFP-peptide fusion (GPS, HEK-293T) (PSI 1-6); higher = more stable
# Settings: c terminus: a fixed tail appended
# 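Also: lentivirally expressed fusions sorted by FACS into six bins by GFP to DsRed ratio, PSI derived from sequencing read proportions per bin multiplied by bin number.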
row,Variant,protein stability index
1,HDDGYMICCDKCSVWQHIDCLGID,2.34
2,HDDGYMICCDKCSVWQHIDCFGID,2.17
3,HDDGYMICCDKCSVWQHIDCDGID,3.5
4,HDDGYMICCDKCSVWQHIDCEGID,2.83
5,HDDGYMICCDKCSVWQHIDCCGID,2.78
6,HDDGYMICCDKCSVWQHIDCIGID,2.5
7,HDDGYMICCDKCSVWQHIDCKGID,2.81
8,HDDGYMICCDKCSVWQHIDCHGID,2.61
9,HDDGYMICCDKCSVWQHIDCRGID,2.85
10,HDDGYMICCDKCSVWQHIDCPGID,3.14
11,HDDGYMICCDKCSVWQHIDCGGID,2.66
12,HDDGYMICCDKCSVWQHIDCAGID,2.94
13,HDDGYMICCDKCSVWQHIDCQGID,2.91
14,HDDGYMICCDKCSVWQHIDCNGID,2.73
15,HDDGYMICCDKCSVDQHIDCMGID,4.24
16,HDDGYMICCDKCSVHQHIDCMGID,3.93
17,HDDGYMICCDKCSVKQHIDCMGID,3.61
18,HDDGYMICCDKCSVQQHIDCMGID,3.63
19,HDDGYMICCDKCSVAQHIDCMGID,3.38
20,HDDGYMICCDKCSVIQHIDCMGID,2.43
21,HDDGYMICCDKCSVGQHIDCMGID,4.18
22,HDDGYMICCDKCSVCQHIDCMGID,3.49
23,HDDGYMICCDKCSVSQHIDCMGID,3.69
24,HDDGYMICCDKCSVLQHIDCMGID,3.16

row,Variant,protein stability index
1,HDDGYMICCDKCSVTQHIDCMGID,3.7
2,HDDGYMICCDKCSVEQHIDCMGID,4.13
3,HDDGYMICCDKCSVFQHIDCMGID,3.11
4,HDDGYMICCDKCSVRQHIDCMGID,3.18
5,HDDGYMICCDKCSVYQHIDCMGID,2.73
6,HDDGYMICCDKCSVMQHIDCMGID,3.18
7,HDDGYMICCDKCSVPQHIDCMGID,3.6
8,HDDGYMICCDKCSVVQHIDCMGID,3.59
9,HDDGYMICCDKCSVNQHIDCMGID,3.79
10,HDDGYMICCDKCSVWQHIQCMGID,2.62
11,HDDGYMICCDKCSVWQHIWCMGID,1.98
12,HDDGYMICCDKCSVWQHIGCMGID,2.84
13,HDDGYMICCDKCSVWQHIRCMGID,2.43
14,HDDGYMICCDKCSVWQHIMCMGID,2
15,HDDGYMICCDKCSVWQHISCMGID,1.78
16,HDDGYMICCDKCSVWQHIACMGID,2.04
17,HDDGYMICCDKCSVWQHILCMGID,2.14
18,HDDGYMICCDKCSVWQHIICMGID,2.25
19,HDDGYMICCDKCSVWQHIVCMGID,3.42
20,HDDGYMICCDKCSVWQHIYCMGID,1.72
21,HDDGYMICCDKCSVWQHIECMGID,2.57
22,HDDGYMICCDKCSVWQHIKCMGID,2.52
23,HDDGYMICCDKCSVWQHIFCMGID,1.74
24,HDDGYMICCDKCSVWQHIHCMGID,2.2

row,Variant,protein stability index
1,HDDGYMICCDKCSVWQHINCMGID,1.91
2,HDDGYMICCDKCSVWQHIPCMGID,2.33
3,HDDGYMICCDKCSVWQHICCMGID,2.94
4,HDDGYMICCDKCSVWQHITCMGID,2.33
5,HDDGYMICCDKCSVWVHIDCMGID,2.82
6,HDDGYMICCDKCSVWYHIDCMGID,1.07
7,HDDGYMICCDKCSVWKHIDCMGID,2.35
8,HDDGYMICCDKCSVWSHIDCMGID,1.93
9,HDDGYMICCDKCSVWNHIDCMGID,2.42
10,HDDGYMICCDKCSVWEHIDCMGID,2.6
11,HDDGYMICCDKCSVWLHIDCMGID,2.75
12,HDDGYMICCDKCSVWCHIDCMGID,2.4
13,HDDGYMICCDKCSVWMHIDCMGID,2.65
14,HDDGYMICCDKCSVWGHIDCMGID,2.71
15,HDDGYMICCDKCSVWDHIDCMGID,2.08
16,HDDGYMICCDKCSVWTHIDCMGID,1.69
17,HDDGYMICCDKCSVWAHIDCMGID,1.47
18,HDDGYMICCDKCSVWFHIDCMGID,2.02
19,HDDGYMICCDKCSVWHHIDCMGID,2.48
20,HDDGYMICCDKCSVWPHIDCMGID,3.15
21,HDDGYMICCDKCSVWIHIDCMGID,1.77
22,HDDGYMICCDKCSVWWHIDCMGID,1.61
23,HDDGYMICCDKCSVWRHIDCMGID,2.48
24,HDDGYMICCDKCSVWQHLDCMGID,2.28

row,Variant,protein stability index
1,HDDGYMICCDKCSVWQHEDCMGID,3.5
2,HDDGYMICCDKCSVWQHCDCMGID,3.93
3,HDDGYMICCDKCSVWQHVDCMGID,1.99
4,HDDGYMICCDKCSVWQHYDCMGID,2.6
5,HDDGYMICCDKCSVWQHFDCMGID,2.35
6,HDDGYMICCDKCSVWQHTDCMGID,2.44
7,HDDGYMICCDKCSVWQHKDCMGID,3.36
8,HDDGYMICCDKCSVWQHADCMGID,2.9
9,HDDGYMICCDKCSVWQHNDCMGID,2.52
10,HDDGYMICCDKCSVWQHHDCMGID,3.6
11,HDDGYMICCDKCSVWQHRDCMGID,3.32
12,HDDGYMICCDKCSVWQHSDCMGID,3.06
13,HDDGYMICCDKCSVWQHMDCMGID,3.14
14,HDDGYMICCDKCSVWQHWDCMGID,2.38
15,HDDGYMICCDKCSVWQHGDCMGID,3.5
16,HDDGYMICCDKCSVWQHQDCMGID,3.42
17,HDDGYMICCDKCSVWQHPDCMGID,2.94
18,HDDGYMICCDKCSVWQHDDCMGID,3.71
19,HDDGYMICCDKCGVWQHIDCMGID,3.48
20,HDDGYMICCDKCYVWQHIDCMGID,1.93
21,HDDGYMICCDKCLVWQHIDCMGID,2.18
22,HDDGYMICCDKCVVWQHIDCMGID,1.85
23,HDDGYMICCDKCFVWQHIDCMGID,1.8
24,HDDGYMICCDKCAVWQHIDCMGID,1.73

row,Variant,protein stability index
1,HDDGYMICCDKCRVWQHIDCMGID,3.31
2,HDDGYMICCDKCMVWQHIDCMGID,2.45
3,HDDGYMICCDKCEVWQHIDCMGID,2.55
4,HDDGYMICCDKCWVWQHIDCMGID,2.37
5,HDDGYMICCDKCKVWQHIDCMGID,2.43
6,HDDGYMICCDKCQVWQHIDCMGID,2.59
7,HDDGYMICCDKCTVWQHIDCMGID,2.72
8,HDDGYMICCDKCDVWQHIDCMGID,2.18
9,HDDGYMICCDKCNVWQHIDCMGID,2.56
10,HDDGYMICCDKCCVWQHIDCMGID,3.19
11,HDDGYMICCDKCHVWQHIDCMGID,2.09
12,HDDGYMICCDKCPVWQHIDCMGID,2.7
13,HDDGYMICCDKPSVWQHIDCMGID,2.56
14,HDDGYMICCDKWSVWQHIDCMGID,2.32
15,HDDGYMICCDKYSVWQHIDCMGID,2.91
16,HDDGYMICCDKESVWQHIDCMGID,3.63
17,HDDGYMICCDKQSVWQHIDCMGID,2.46
18,HDDGYMICCDKVSVWQHIDCMGID,1.93
19,HDDGYMICCDKASVWQHIDCMGID,2.71
20,HDDGYMICCDKNSVWQHIDCMGID,3.05
21,HDDGYMICCDKMSVWQHIDCMGID,2.05
22,HDDGYMICCDKHSVWQHIDCMGID,2.65
23,HDDGYMICCDKLSVWQHIDCMGID,1.7
24,HDDGYMICCDKTSVWQHIDCMGID,2.74

row,Variant,protein stability index
1,HDDGYMICCDKSSVWQHIDCMGID,3.01
2,HDDGYMICCDKKSVWQHIDCMGID,3.46
3,HDDGYMICCDKISVWQHIDCMGID,1.92
4,HDDGYMICCDKDSVWQHIDCMGID,3.54
5,HDDGYMICCDKFSVWQHIDCMGID,1.76
6,HDDGYMICCDKRSVWQHIDCMGID,2.28
7,HDDGYMICCDKGSVWQHIDCMGID,2.67
8,HDDGYMICCDKCSQWQHIDCMGID,2.83
9,HDDGYMICCDKCSLWQHIDCMGID,1.78
10,HDDGYMICCDKCSEWQHIDCMGID,3.73
11,HDDGYMICCDKCSYWQHIDCMGID,2.12
12,HDDGYMICCDKCSGWQHIDCMGID,2.94
13,HDDGYMICCDKCSSWQHIDCMGID,2.77
14,HDDGYMICCDKCSCWQHIDCMGID,2.57
15,HDDGYMICCDKCSNWQHIDCMGID,3.05
16,HDDGYMICCDKCSWWQHIDCMGID,2.11
17,HDDGYMICCDKCSRWQHIDCMGID,2.77
18,HDDGYMICCDKCSAWQHIDCMGID,2.41
19,HDDGYMICCDKCSFWQHIDCMGID,1.86
20,HDDGYMICCDKCSKWQHIDCMGID,3.22
21,HDDGYMICCDKCSTWQHIDCMGID,2.93
22,HDDGYMICCDKCSIWQHIDCMGID,2.57
23,HDDGYMICCDKCSMWQHIDCMGID,2.06
24,HDDGYMICCDKCSHWQHIDCMGID,3.23

row,Variant,protein stability index
1,HDDGYMICCDKCSPWQHIDCMGID,3.12
2,HDDGYMICCDKCSDWQHIDCMGID,3.37
3,HDDGYMICCDKCSVWQFIDCMGID,1.65
4,HDDGYMICCDKCSVWQEIDCMGID,2.89
5,HDDGYMICCDKCSVWQTIDCMGID,1.64
6,HDDGYMICCDKCSVWQSIDCMGID,2.48
7,HDDGYMICCDKCSVWQAIDCMGID,2.16
8,HDDGYMICCDKCSVWQNIDCMGID,2.32
9,HDDGYMICCDKCSVWQVIDCMGID,2.8
10,HDDGYMICCDKCSVWQYIDCMGID,1.63
11,HDDGYMICCDKCSVWQQIDCMGID,2.48
12,HDDGYMICCDKCSVWQKIDCMGID,1.52
13,HDDGYMICCDKCSVWQIIDCMGID,1.34
14,HDDGYMICCDKCSVWQGIDCMGID,2.72
15,HDDGYMICCDKCSVWQLIDCMGID,1.98
16,HDDGYMICCDKCSVWQRIDCMGID,1.95
17,HDDGYMICCDKCSVWQMIDCMGID,2.82
18,HDDGYMICCDKCSVWQDIDCMGID,2.5
19,HDDGYMICCDKCSVWQCIDCMGID,3.54
20,HDDGYMICCDKCSVWQPIDCMGID,2.18
21,HDDGYMICCDKCSVWQHIDMMGID,1.79
22,HDDGYMICCDKCSVWQHIDKMGID,2.06
23,HDDGYMICCDKCSVWQHIDLMGID,1.86
24,HDDGYMICCDKCSVWQHIDNMGID,2.81

row,Variant,protein stability index
1,HDDGYMICCDKCSVWQHIDSMGID,1.51
2,HDDGYMICCDKCSVWQHIDDMGID,2.58
3,HDDGYMICCDKCSVWQHIDWMGID,2.15
4,HDDGYMICCDKCSVWQHIDTMGID,2.22
5,HDDGYMICCDKCSVWQHIDGMGID,2.19
6,HDDGYMICCDKCSVWQHIDAMGID,2.5
7,HDDGYMICCDKCSVWQHIDIMGID,2.08
8,HDDGYMICCDKCSVWQHIDHMGID,2.12
9,HDDGYMICCDKCSVWQHIDEMGID,2.29
10,HDDGYMICCDKCSVWQHIDQMGID,2.02
11,HDDGYMICCDKCSVWQHIDRMGID,1.97
12,HDDGYMICCDKCSVWQHIDVMGID,1.89
13,HDDGYMICCDKCSVWQHIDFMGID,1.28
14,HDDGYMICCDKCSVWQHIDYMGID,1.68
15,HDDGYMICCDKCSVWQHIDPMGID,2.31
16,HDDGYMICCDVCSVWQHIDCMGID,1.5
17,HDDGYMICCDTCSVWQHIDCMGID,1.81
18,HDDGYMICCDSCSVWQHIDCMGID,2.68
19,HDDGYMICCDYCSVWQHIDCMGID,1.86
20,HDDGYMICCDRCSVWQHIDCMGID,1.85
